Broadly, the Ki is a dissociation constant, usually derived from enzyme kinetics or from competition with a known ligand.

Starred links: 1 amine or outer side, 2 acyl side, 3 side chain; linkers in the order of their positions; H or OH if unused. Non-standard residues stand in square brackets, D forms with d. No end group written: not given here. *: point of attachment. Kbt‑6‑CONH = ketobenzothiazole-6-CONH (amide link to Val), O=C(c1ccc2nc([*:1])sc2c1)[*:2]; kbt = C-terminal ketobenzothiazole, c1ccc2sc(*)nc2c1; His(π-Bom) = N[C@@H](Cc1cncn1COCc1ccccc1)C(=O)O; Fmoc = O=C(OCC1c2ccccc2-c2ccccc21)*; cmk = not defined here

For 44 molecules, IC50 of enzyme inhibition and Ki results are on record in patent US20180066015A1, “INHIBITORS OF GROWTH FACTOR ACTIVATION ENZYMES” (Washington University, published 2018).

Experiment [1] addresses Hepatocyte Growth Factor Activator (HGFA) serine protease domain, N-terminal His-tag, recombinant (Homo sapiens (Human)) (UniProt Q04756).
For experiment [2], the target named is Recombinant human hepsin (4776-SE-010, R&D Systems), activated (human, UniProt P05981). The experiment can be described thus: fluorogenic inhibition assay. The method, then:
(§1) Inhibitors (11-pt serial dilutions, 0-20 μM final concentration in reaction) were serially diluted in DMSO (2% DMSO final concentration) and then mixed with either recombinant serine protease domain of HGFA [Z. Han, P. K. Harris, D. E. Jones, R. Chugani, T. Kim, M. Agarwal, W. Shen, S. A. Wildman, J. W. Janetka, Acs Med Chem Lett 2014, 5, 1219-1224], matriptase (Charles Craik, UCSF) or hepsin* (#4776-SE-010, R&D Systems, Minneapolis, Minn.) in black 384 well plates (Corning #3575. Corning, N.Y.). […] The final substrate concentrations for all assays were at the Kₘ for the respective enzymes. Changes in fluorescence (excitation at 380 nm and emission at 460 nm) were measured at room temperature over time in a Biotek Synergy 2 plate reader (Winnoski, Vt.). Using GraphPad Prism version 6.04 software program, (GraphPad Software, San Diego, Calif., www.graphpad.com), a four parameter curve fit was used to determine the inhibitor IC₅₀s from a plot of the mean reaction velocity versus the inhibitor concentration. The IC₅₀ values represent the average of three separate experimental determinations.
(§2) Fluorescent inhibitor and chromogenic proteolytic assays were performed in general accordance with the procedures described in Example 4 for compounds prepared in Examples 5 and 6.

The target of experiment [3] is T1, matriptase (Charles Craik, UCSF), recombinant (Homo sapiens (Human), UniProt Q9Y5Y6).
T1 sequence: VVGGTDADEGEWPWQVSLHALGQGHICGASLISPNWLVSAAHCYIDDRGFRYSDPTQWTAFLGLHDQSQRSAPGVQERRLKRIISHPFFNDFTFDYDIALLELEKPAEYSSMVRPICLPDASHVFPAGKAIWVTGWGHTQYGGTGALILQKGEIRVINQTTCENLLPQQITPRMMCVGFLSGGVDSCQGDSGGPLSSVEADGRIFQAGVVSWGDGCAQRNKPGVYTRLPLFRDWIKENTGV
The experiment can be described thus: fluorogenic inhibition assay. The procedure: as §1, §2

The target in experiment [4] is Hepatocyte Growth Factor Activator (HGFA) serine protease domain, N-terminal His-tag, recombinant (Homo sapiens (Human)) (UniProt Q04756). The experiment can be described thus: fluorogenic inhibition assay.
Experiment [5] deals with recombinant thrombin. As to the kind of experiment: selectivity inhibition assay.
Experiment [6] has as its target Factor Xa. The experiment can be described thus: selectivity inhibition assay.

Turning to Ac-KHLdR-kt (peptide), in experiment [1], the IC50 of enzyme inhibition turned out to be 10900 nM.

Ac-WQLdR-kt (peptide): the IC50 of enzyme inhibition in experiment [1] is 7120 nM.

Consider Ac-KQLdR-kt (peptide), for which the IC50 of enzyme inhibition in experiment [1] worked out at 5530 nM.

Ac-RQLdR-kt (peptide): the IC50 of enzyme inhibition in experiment [1] was 3120 nM.

In the case of Ac-SKLdR-kt (peptide), in experiment [1], the IC50 of enzyme inhibition stood at 6310 nM.

Take H-KQLdR-kt (peptide): the IC50 of enzyme inhibition in experiment [1] came to 11300 nM.

As to Ac-SdRLdR-kt (peptide), in experiment [1], the IC50 of enzyme inhibition was 11900 nM.

Turning to Ac-SRLdR-kt (peptide), in experiment [1], the IC50 of enzyme inhibition was 2240 nM.

As for Ac-SdRLR-kt (peptide), the IC50 of enzyme inhibition in experiment [1] turned out to be 1420 nM.

Turning to Ac-KQFdR-kt (peptide), the IC50 of enzyme inhibition in experiment [1] came out at 7820 nM.

Take H-KQLR(SEQ ID NO: 1)-Kt (peptide): the IC50 of enzyme inhibition in experiment [1] stood at 440 nM.

In the case of Ac-SHLdR-kt (peptide), in experiment [1], the IC50 of enzyme inhibition worked out at 21200 nM.

Ac-SKFdR-kt (peptide): the IC50 of enzyme inhibition in experiment [1] came out at 10800 nM.

As to Ac-WKLdR-kt (peptide), the IC50 of enzyme inhibition in experiment [1] turned out to be 6500 nM.

B1: H-His(Bom)-dWLR-kbt (peptide)
peptide: H-[His(π-Bom)][dW]LR-kbt
SMILES: CC(C)C[C@H](NC(=O)[C@@H](Cc1c[nH]c2ccccc12)NC(=O)[C@@H](N)Cc1cncn1COCc1ccccc1)C(=O)N[C@@H](CCCNC(=N)N)C(=O)c1nc2ccccc2s1
In the case of B1, the Ki in experiment [2] is 1.13 nM; in experiment [3] it was 1500 nM; in experiment [4], 2280 nM.

On to Fmoc-Gly-Arg-kbt [Fmoc-GR-kbt], for which the Ki was determined as 831 nM in experiment [2], 0.1 nM in experiment [3] and 9380 nM in experiment [4].

For Fmoc-Ala-Arg-kbt [Fmoc-AR-kbt], the Ki worked out at 272 nM in experiment [2], 0.5 nM in experiment [3] and 7980 nM in experiment [4].

Take {Cy5.5}-KRLR-cmk (reading uncertain) [Cy5.5-KRLR(SEQ ID NO: 8)-cmk]: the Ki in experiment [2] was 324 nM; in experiment [3], 172 nM; in experiment [4] it was 34.1 nM.

In the case of H-[dW]-Leu-Arg-kbt [H-dWLR-kbt], the Ki in experiment [2] was determined as 3.58 nM; in experiment [4], 128 nM.

Consider Fmoc-His-Arg-kbt [Fmoc-HR-kbt], for which the Ki in experiment [2] was found to be 268 nM; in experiment [3], 66.7 nM; in experiment [4], 6360 nM.

In the case of Fmoc-Lys-Arg-kbt [Fmoc-KR-kbt], the Ki was 159 nM in experiment [2], 0.2 nM in experiment [3] and more than 20000 nM in experiment [4].

As for H-[dW]-Leu-Arg-{kbt-OH} [H-dWLR-kbt-COOH], the Ki came out at 136 nM in experiment [2] and 346 nM in experiment [4].

Regarding Fmoc-Asp-Arg-kbt [Fmoc-DR-kbt], the Ki in experiment [2] was 233 nM; in experiment [3] it was 398 nM; in experiment [4] it was more than 20000 nM.

Fmoc-Ile-Arg-kbt [Fmoc-IR-kbt]: the Ki was determined as 297 nM in experiment [2], 657 nM in experiment [3] and 6470 nM in experiment [4].

As to H-Trp-Phe-Arg-kbt [H-WFR-kbt], the Ki in experiment [2] came to 240 nM; in experiment [4] it was 5680 nM.

Consider {Cy5.5}-KRLR-kbt [Cy5.5-KRLR(SEQ ID NO: 8)-kbt], for which the figures for the Ki in experiment [2], in experiment [3] and in experiment [4] were 3.89 nM, 87.5 nM and 608 nM, respectively.

As to Fmoc-Val-Arg-kbt [Fmoc-VR-kbt], the results for the inhibition constant Ki in experiment [2], in experiment [3] and in experiment [4] were 314 nM, 1490 nM and 4630 nM, respectively.

As to Fmoc-Thr-Arg-kbt [Fmoc-TR-kbt], the Ki in experiment [2] is 437 nM; in experiment [3], 1220 nM; in experiment [4] it was more than 20000 nM.

Regarding Fmoc-Ser-Arg-kbt [Fmoc-SR-kbt], the Ki in experiment [2] is 886 nM; in experiment [3] it was 90 nM; in experiment [4] it was more than 20000 nM.

Regarding Fmoc-Met-Arg-kbt [Fmoc-MR-kbt], the results for the Ki in experiment [2] and in experiment [3] were 490 nM and 62.1 nM, respectively.

With Fmoc-Arg-Arg-kbt [Fmoc-RR-kbt], the results for the Ki in experiment [2], in experiment [3] and in experiment [4] were 99.9 nM, 2 nM and 8630 nM, respectively.

For the molecule Ac-KRLR (not fully specified (C-terminus); also: benzyl COOH at 3 or 4 (tables differ)) [Ac-KRLR(SEQ ID NO: 8)-kbt-Benzyl-3-COOH], the Ki came out at 0.3 nM in experiment [2], 3.6 nM in experiment [3], 3.33 nM in experiment [4] and 1620 nM in experiment [5].

As for Fmoc-Tyr-Arg-kbt [Fmoc-YR-kbt], the Ki in experiment [2] was found to be 217 nM; in experiment [3] it was 332 nM; in experiment [4], 2960 nM.

Regarding Ac-KRLR-{Kbt‑6‑CONH-Val-NH2} [Ac-KRLR(SEQ ID NO: 8)-Kbt-Val-NH2], the Ki in experiment [2] was found to be 0.227 nM; in experiment [3], 7.42 nM; in experiment [4] it was 5.83 nM; in experiment [6], 17 nM; in experiment [5], 1560 nM.

Fmoc-Gln-Arg-kbt [Fmoc-QR-kbt]: the Ki in experiment [2] is 170 nM; in experiment [3] it was 1.6 nM; in experiment [4], 6830 nM.

As for Fmoc-Asn-Arg-kbt [Fmoc-NR-kbt], the Ki in experiment [2] was 1.92 nM; in experiment [3], 84.1 nM; in experiment [4] it was more than 20000 nM.

B2: H-His(Bom)-WLR-kbt (peptide)
peptide: H-[His(π-Bom)]WLR-kbt
SMILES: CC(C)C[C@H](NC(=O)[C@H](Cc1c[nH]c2ccccc12)NC(=O)[C@@H](N)Cc1cncn1COCc1ccccc1)C(=O)N[C@@H](CCCNC(=N)N)C(=O)c1nc2ccccc2s1
Turning to B2, the Ki in experiment [2] worked out at 2.08 nM; in experiment [3], 1550 nM; in experiment [4] it was 3710 nM.

H-Trp-Leu-Arg-{kbt-OH} [H-WLR-kbt-COOH]: the Ki in experiment [2] turned out to be 446 nM; in experiment [4] it was 1380 nM.

H-[dW]-Phe-Arg-{kbt-OH} [H-dWFR-kbt-COOH]: the Ki in experiment [2] came to 1.41 nM; in experiment [3], 232 nM; in experiment [4] it was 981 nM.

Consider H-[dW]-Phe-Arg-kbt [H-dWFR-kbt], for which the Ki in experiment [2] is 370 nM; in experiment [4], 2250 nM.

B3: Ac-WLFR(SEQ ID NO: 20)-Kbt (peptide)
peptide: Ac-WLFR-kbt
SMILES: CC(=O)N[C@@H](Cc1c[nH]c2ccccc12)C(=O)N[C@@H](CC(C)C)C(=O)N[C@@H](Cc1ccccc1)C(=O)N[C@@H](CCCNC(=N)N)C(=O)c1nc2ccccc2s1
Regarding B3, the Ki is 0.347 nM in experiment [2]; 5.96 nM in experiment [3]; 133 nM in experiment [4]; 1 nM in experiment [6]; more than 20000 nM in experiment [5].

Take Fmoc-Pro-Arg-kbt [Fmoc-PR-kbt]: the Ki in experiment [2] is 776 nM; in experiment [3], 40.4 nM; in experiment [4], more than 20000 nM.

Take Fmoc-Glu-Arg-kbt [Fmoc-ER-kbt]: the Ki is 338 nM in experiment [2], 8.4 nM in experiment [3] and more than 20000 nM in experiment [4].

In the case of Fmoc-Trp-Arg-kbt [Fmoc-WR-kbt], the Ki in experiment [2] is 411 nM; in experiment [3], 824 nM; in experiment [4], 3200 nM.
